B1: FEM1A (parent)
chain: NIVEYLIQEQPGQEQVAGGEAQPG

Variants of: B1
Experiment: protein stability index of a GFP-peptide fusion (GPS, HEK-293T) (PSI 1-6); higher = more stable
Details: c terminus: a fixed tail appended
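Further: lentivirally expressed fusions sorted by FACS into six bins by GFP to DsRed ratio, PSI derived from sequencing read proportions per bin multiplied by bin number.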

Compared with NIVEYLIQEQPGQEQVAGGEAPPG [Q22P], NIVEYLIQEQPGQEQVAGGEAMPG [Q22M] is higher in protein stability index: 4.02 for the first, 4.35 for the second.

Compared with NIVEYLIQEQPGQEQVAGGEAYPG [Q22Y], NIVEYLIQEQPGQEQVAGGEAVPG [Q22V] is higher in protein stability index: 2.78 for the first, 4.35 for the second.

First: NIVEYLIQEQPGQEQVAGGEASPG [Q22S]
Second: NIVEYLIQEQPGQEQVAGGEADPG [Q22D]
The protein stability index of the first is lower: 4.53 for the first, 4.56 for the second.

Compared with NIVEYLIQEQPGQEQVAGGEAFPG [Q22F], NIVEYLIQEQPGQEQVAGGEAEPG [Q22E] is higher in protein stability index: 3.24 for the first, 4.82 for the second.

First: NIVEYLIQEQPGQEQVAGGEAGPG [Q22G]
Second: NIVEYLIQEQPGQEQVAGGEATPG [Q22T]
The protein stability index of the first is higher: 4.33 for the first, 3.91 for the second.

Going from NIVEYLIQEQPGQEQVAGGEAHPG [Q22H] to NIVEYLIQEQPGQEQVAGGEAAPG [Q22A], the protein stability index rises from 3.94 to 4.1.

Going from NIVEYLIQEQPGQEQVAGGEALPG [Q22L] to NIVEYLIQEQPGQEQVAGGEANPG [Q22N], the protein stability index rises from 4.16 to 4.22.

First: NIVEYLIQEQPGQEQVAGGEARPG [Q22R]
Second: NIVEYLIQEQPGQEQVAGGEAKPG [Q22K]
The protein stability index of the first is lower: 3.94 for the first, 4.08 for the second.

First: NIVEYLIQEQPGQEQVAGGEAWPG [Q22W]
Second: NIVEYLIQEQPGQEQVAGGEAIPG [Q22I]
The protein stability index of the first is lower: 2.51 for the first, 3.66 for the second.

Going from NIVEYLIQEQPGQEQVAGNEAQPG [G19N] to NIVEYLIQEQPGQEQVAGVEAQPG [G19V], the protein stability index falls from 4.43 to 3.96.

First: NIVEYLIQEQPGQEQVAGLEAQPG [G19L]
Second: NIVEYLIQEQPGQEQVAGWEAQPG [G19W]
The protein stability index of the first is higher: 3.6 for the first, 2.99 for the second.

Going from NIVEYLIQEQPGQEQVAGIEAQPG [G19I] to NIVEYLIQEQPGQEQVAGCEAQPG [G19C], the protein stability index rises from 3.23 to 4.06.

First: NIVEYLIQEQPGQEQVAGEEAQPG [G19E]
Second: NIVEYLIQEQPGQEQVAGTEAQPG [G19T]
The protein stability index of the first is higher: 5.05 for the first, 4.18 for the second.

Compared with NIVEYLIQEQPGQEQVAGMEAQPG [G19M], NIVEYLIQEQPGQEQVAGYEAQPG [G19Y] is lower in protein stability index: 3.72 for the first, 3.47 for the second.

Going from NIVEYLIQEQPGQEQVAGDEAQPG [G19D] to NIVEYLIQEQPGQEQVAGREAQPG [G19R], the protein stability index falls from 4.75 to 3.66.

Going from NIVEYLIQEQPGQEQVAGFEAQPG [G19F] to NIVEYLIQEQPGQEQVAGKEAQPG [G19K], the protein stability index rises from 3.31 to 4.22.

First: NIVEYLIQEQPGQEQVAGAEAQPG [G19A]
Second: NIVEYLIQEQPGQEQVAGSEAQPG [G19S]
The protein stability index of the first is lower: 4.24 for the first, 4.65 for the second.

First: NIVEYLIQEQPGQEQVAGHEAQPG [G19H]
Second: NIVEYLIQEQPGQEQVAGPEAQPG [G19P]
The protein stability index of the first is lower: 4.04 for the first, 4.16 for the second.

First: NIVEYLIQEQPGQEQVAGQEAQPG [G19Q]
Second: NIVEYLIQEQPGQEQVAGGEAQPY [G24Y]
The protein stability index of the first is higher: 4.09 for the first, 3.51 for the second.

Going from NIVEYLIQEQPGQEQVAGGEAQPP [G24P] to NIVEYLIQEQPGQEQVAGGEAQPC [G24C], the protein stability index rises from 4.12 to 4.17.

Compared with NIVEYLIQEQPGQEQVAGGEAQPH [G24H], NIVEYLIQEQPGQEQVAGGEAQPL [G24L] is lower in protein stability index: 4.28 for the first, 4.05 for the second.

Going from NIVEYLIQEQPGQEQVAGGEAQPT [G24T] to NIVEYLIQEQPGQEQVAGGEAQPQ [G24Q], the protein stability index rises from 4.17 to 4.37.

Compared with NIVEYLIQEQPGQEQVAGGEAQPK [G24K], NIVEYLIQEQPGQEQVAGGEAQPR [G24R] is higher in protein stability index: 3.94 for the first, 3.98 for the second.

Compared with NIVEYLIQEQPGQEQVAGGEAQPS [G24S], NIVEYLIQEQPGQEQVAGGEAQPW [G24W] is lower in protein stability index: 3.86 for the first, 2.86 for the second.

NIVEYLIQEQPGQEQVAGGEAQPI [G24I] and NIVEYLIQEQPGQEQVAGGEAQPE [G24E] are the same in protein stability index: 4.03 for the first, 4.03 for the second.

First: NIVEYLIQEQPGQEQVAGGEAQPA [G24A]
Second: NIVEYLIQEQPGQEQVAGGEAQPV [G24V]
The protein stability index of the first is higher: 3.67 for the first, 3.29 for the second.

Compared with NIVEYLIQEQPGQEQVAGGEAQPF [G24F], NIVEYLIQEQPGQEQVAGGEAQPM [G24M] is higher in protein stability index: 3.76 for the first, 3.86 for the second.

Going from NIVEYLIQEQPGQEQVAGGEAQPD [G24D] to NIVEYLIQEQPGQEQVAGGEAQPN [G24N], the protein stability index falls from 4.62 to 4.29.

First: NIVEYLIQEQPGQEQVAGGENQPG [A21N]
Second: NIVEYLIQEQPGQEQVAGGEDQPG [A21D]
The protein stability index of the first is higher: 4.7 for the first, 4.53 for the second.

Going from NIVEYLIQEQPGQEQVAGGEHQPG [A21H] to NIVEYLIQEQPGQEQVAGGEWQPG [A21W], the protein stability index falls from 3.77 to 3.03.

First: NIVEYLIQEQPGQEQVAGGELQPG [A21L]
Second: NIVEYLIQEQPGQEQVAGGEEQPG [A21E]
The protein stability index of the first is lower: 3.95 for the first, 4.76 for the second.

First: NIVEYLIQEQPGQEQVAGGEFQPG [A21F]
Second: NIVEYLIQEQPGQEQVAGGERQPG [A21R]
The protein stability index of the first is higher: 4.41 for the first, 4.19 for the second.

Compared with NIVEYLIQEQPGQEQVAGGEYQPG [A21Y], NIVEYLIQEQPGQEQVAGGESQPG [A21S] is lower in protein stability index: 4.03 for the first, 3.83 for the second.

Compared with NIVEYLIQEQPGQEQVAGGEVQPG [A21V], NIVEYLIQEQPGQEQVAGGEIQPG [A21I] is lower in protein stability index: 4.15 for the first, 3.91 for the second.

First: NIVEYLIQEQPGQEQVAGGEGQPG [A21G]
Second: NIVEYLIQEQPGQEQVAGGECQPG [A21C]
The protein stability index of the first is lower: 3.86 for the first, 4.09 for the second.

Compared with NIVEYLIQEQPGQEQVAGGEMQPG [A21M], NIVEYLIQEQPGQEQVAGGEPQPG [A21P] is higher in protein stability index: 4.16 for the first, 4.27 for the second.

First: NIVEYLIQEQPGQEQVAGGEQQPG [A21Q]
Second: NIVEYLIQEQPGQEQVAGGEKQPG [A21K]
The protein stability index of the first is lower: 4.05 for the first, 4.28 for the second.

Compared with NIVEYLIQEQPGQEQVAGGETQPG [A21T], NIVEYLIQEQPGQEQVAGGGAQPG [E20G] is lower in protein stability index: 4.67 for the first, 4.38 for the second.

Going from NIVEYLIQEQPGQEQVAGGAAQPG [E20A] to NIVEYLIQEQPGQEQVAGGRAQPG [E20R], the protein stability index falls from 3.89 to 3.79.

Going from NIVEYLIQEQPGQEQVAGGDAQPG [E20D] to NIVEYLIQEQPGQEQVAGGKAQPG [E20K], the protein stability index falls from 4.59 to 4.25.

Compared with NIVEYLIQEQPGQEQVAGGPAQPG [E20P], NIVEYLIQEQPGQEQVAGGWAQPG [E20W] is lower in protein stability index: 3.79 for the first, 2.62 for the second.

First: NIVEYLIQEQPGQEQVAGGYAQPG [E20Y]
Second: NIVEYLIQEQPGQEQVAGGCAQPG [E20C]
The protein stability index of the first is lower: 2.34 for the first, 3.68 for the second.

First: NIVEYLIQEQPGQEQVAGGHAQPG [E20H]
Second: NIVEYLIQEQPGQEQVAGGVAQPG [E20V]
The protein stability index of the first is higher: 4.1 for the first, 3.49 for the second.

Going from NIVEYLIQEQPGQEQVAGGSAQPG [E20S] to NIVEYLIQEQPGQEQVAGGIAQPG [E20I], the protein stability index rises from 3.41 to 3.53.

Compared with NIVEYLIQEQPGQEQVAGGNAQPG [E20N], NIVEYLIQEQPGQEQVAGGMAQPG [E20M] is lower in protein stability index: 3.73 for the first, 3.13 for the second.

First: NIVEYLIQEQPGQEQVAGGTAQPG [E20T]
Second: NIVEYLIQEQPGQEQVAGGFAQPG [E20F]
The protein stability index of the first is higher: 3.63 for the first, 3.46 for the second.

Compared with NIVEYLIQEQPGQEQVAGGLAQPG [E20L], NIVEYLIQEQPGQEQVAGGQAQPG [E20Q] is higher in protein stability index: 3.54 for the first, 3.9 for the second.

Source: the supplement of paper PMC10567573
